Data set [1] in a line: Enzyme kinetic studies of CPG2-derived enzymes in detergent soluble cell extracts, MTX as substrate. It counts as biochemical. To be noted: for Catalytic activity (%): specific activity of COS/CPG2* (50 ng CPG2*) assigned as 100%; for catalytic activity compared to CPG2*(Q)3: increase relative to CPG2*(Q)3; for increase in Km (decrease in apparent affinity for MTX) compared to CPG2*(Q)3: relative to CPG2*(Q)3. The source says:
Detergent soluble cell extracts, and enzyme kinetic analyses have been described previously (Marais et al (1996) Cancer Res. 56, 4735-4742; Marais et al (1997) Nature Biotech. 15, 1373-1377).

Data set [2] can be described thus: CPG2 dimer stability by non-reducing SDS-polyacrylamide gel electrophoresis of COS cell extracts. To be noted: sample not heated.
Description: To test this, CPG2* was transiently expressed in COS cells and the stability of the dimers determined by non-reducing SDS-polyacrylamide gels.
Data set [3] in a line: CPG2 enzyme activity in detergent soluble extracts of stably expressing clones, MTX as substrate. It counts as biochemical. The following applies: for CPG2 activity (U/mg): U/mg detergent soluble protein, clone as in label. An excerpt: All mammalian cell lines were maintained in Dulbecco's Modified Eagle's Medium supplemented with 10% foetal calf serum (DMEM/FCS). For this study, the human colorectal carcinoma cell line WiDr (Noguchi et al (1979) In Vitro. 15, 401-408, and the human ovarian carcinoma cell lines SK-OV-3 (Hill et al. (1987) 39, 219-225) and A2780 (Louie et al. (1985) Cancer Res. 45, 2110-2115) were separately transfected with the plasmid pMCEFstcpg2(Q)3 (Marais et al (1997) Nature Biotech. 15, 1373-1377) and G418-resistant colonies were selected by limiting dilution. Detergent soluble extracts were incubated with methotrexate, a good carboxypeptidase G2 substrate. Rate of change of absorbance at 320 nm was measured to identify those colonies able to degrade MTX and therefore likely to express stCPG2(Q)3. Expression of stCPG2(Q)3 was confirmed by immunoblotting these detergent soluble extracts using a rabbit polyclonal serum specific for CPG2 (Marais et al (1996) Cancer Res. 56, 4735-4742; Marais et al (1997) Nature Biotech. 15, 1373-1377). Cell lines constitutively expressing β-galactosidase or CPG2* have been described (Marais et al (1996) Cancer Res. 56, 4735-4742; Marais et al (1997) Nature Biotech. 15, 1373-1377).
In order to conduct these studies, we engineered WiDr (human colorectal adenocarcinoma), SK-OV-3 and A2780 (both human ovarian tumour lines) cells for stable expression of stCPG2(Q)3. The presence of stCPG2(Q)3 was verified by immunoprotein blotting (data not shown) and the levels of enzyme activity in these clones were determined using MTX as substrate (Table 2). For each line two or three clones were examined. The SK-OV-3 clones expressed the lowest levels of CPG2 activity (0.016 and 0.023 U/mg protein) followed by the A2780 clones (0.06 and 0.067 U/mg), with WiDr clones expressing the highest level of CPG2 activity (0.177 and 0.226 U/mg) (Table 2).

The conditions of data set [4]: previous study, cited from earlier work.
Data set [5] deals with the molecule itself. As to the kind of experiment: non-reducing SDS-PAGE of COS cell extracts (homodimer).
Description: We first determined why the asparagine to glutamine mutations that blocked glycosylation reduced CPG2s enzyme activity. […] We next tested each position independently.
The mark [6] stands for this setting: substrate MTX, detergent soluble cell extract, read-out: Km (μM MTX).

Residue numbers refer to the chain shown, from its start. Numbers in names are those of the source. Entries after “also recorded” stand apart in the source; their conditions may differ. Like-named read-outs stand apart in the source and are kept apart here.

As a reminder, the Km is the concentration of substrate that gives half-maximal velocity.

B1: stCPG2(QTQ): surface tethered CPG2, Q222, T264, Q272 (protein)
chain: ALAQKRDNVLFQAATDEQPAVIKTLEKLVNIETGTGDAEGIAAAGNFLEAELKNLGFTVTRSKSAGLVVGDNIVGKIKGRGGKNLLLMSHMDTVYLKGILAKAPFRVEGDKAYGPGIADDKGGNAVILHTLKLLKEYGVRDYGTITVLFNTDEEKGSFGSRDLIQEEAKLADYVLSFEPTSAGDEKLSLGTSGIAYVQVQITGKASHAGAAPELGVNALVEASDLVLRTMNIDDKAKNLRFTWTIAKAGQVSNIIPASATLNADVRYARNEDFDAAMKTLEERAQQKKLPEADVKVIVTRGRPAFNAGEGGKKLVDKAVAYYKEAGGTLGVEERTGGGTDAAYAALSGKPVIESLGLPGFGYHSDKAEYVDISAIPRRLYMAARLIMDLGAGKDLDDKGCPAEQRASPLTSIISAVVGILLVVVLGVVFGILIKRRQQKIRKYT
Regarding B1, the “Catalytic activity (%)” value in data set [1] was determined as 29%. Also, the Km in data set [1] (setting [6]) was determined as 45 µM. Besides, in data set [2], the dimer stability entry was “did nor form stable dimers”.

B2: stCPG2(QAQ): surface tethered CPG2, Q222, A264, Q272 (protein)
chain: B1 chain with T242A
As to B2, the “Catalytic activity (%)” value in data set [1] is given as 38%. Besides, the Km in data set [1] (setting [6]) was 69 µM. The dimer stability result in data set [2] is listed as “did nor form stable dimers”.

B3: stCPG2(QSQ): surface tethered CPG2, Q222, S264, Q272 (protein)
chain: B1 chain with T242S
With B3, the “Catalytic activity (%)” value in data set [1] turned out to be 40%. Moreover, the Km in data set [1] (setting [6]) was 51 µM. Also, the dimer stability result in data set [2] is “weak dimers”.

B4: CPG2* (cytosolic carboxypeptidase G2 from Pseudomonas strain RS16) (enzyme)
chain: ALAQKRDNVLFQAATDEQPAVIKTLEKLVNIETGTGDAEGIAAAGNFLEAELKNLGFTVTRSKSAGLVVGDNIVGKIKGRGGKNLLLMSHMDTVYLKGILAKAPFRVEGDKAYGPGIADDKGGNAVILHTLKLLKEYGVRDYGTITVLFNTDEEKGSFGSRDLIQEEAKLADYVLSFEPTSAGDEKLSLGTSGIAYVQVNITGKASHAGAAPELGVNALVEASDLVLRTMNIDDKAKNLRFNWTIAKAGNVSNIIPASATLNADVRYARNEDFDAAMKTLEERAQQKKLPEADVKVIVTRGRPAFNAGEGGKKLVDKAVAYYKEAGGTLGVEERTGGGTDAAYAALSGKPVIESLGLPGFGYHSDKAEYVDISAIPRRLYMAARLIMDLGAGK
notes: Homodimer; also called COS/CPG2*
As to B4, the “Catalytic activity (%)” value in data set [1] amounted to 100%. Besides, the Km in data set [1] (setting [6]) worked out at 7.2 µM. Besides, in data set [3] (A2780), the “enzyme activity of CPG2* clone relative to stCPG2(Q)3 clones” value was about 15 times. The entries for the “CPG2 activity (U/mg)” value in data set [3] (listed as S2.34 CPG2*) and in data set [3] (listed as S2.4 CPG2*) were 0.023 U/mg and 0.014 U/mg, respectively. For the same molecule, the CPG2 enzyme activity is 0.964 U/mg in data set [4] (A2780 clone expressing CPG2*), 1.013 U/mg in data set [4] (SK-OV-3 clone expressing CPG2*) and 0.787 U/mg in data set [4] (WiDr clone expressing CPG2*). Moreover, the binding result in data set [5] is “binds”.

B5: CPG2*(Q)3: cytosolic CPG2* bearing three asparagine to glutamine mutations (N222, N264, N272) (protein)
chain: B4 chain with N200Q, N242Q, N250Q
Consider B5, for which the dimer stability result in data set [2] is “unstable”.

B6: CPG2*(QSQ) (enzyme)
chain: B4 chain with N200Q, N242S, N250Q
notes: also called COS/CPG2* (QSQ)
In the case of B6, in data set [1], the “catalytic activity compared to CPG2*(Q)3” value is “almost twice as active”, the “increase in Km (decrease in apparent affinity for MTX) compared to CPG2*(Q)3” value was about 6 fold and the “Catalytic activity (%)” value is on record as 58%. Also, the Km in data set [1] (setting [6]) is 58 µM. Also, the binding result in data set [5] is on record as “binds”. The dimer stability entry in data set [2] is reported as “improved; also recorded: restored weak dimer stability”.

B7: CPG2*(N222L) (enzyme)
chain: B4 chain with N200L
notes: Cytosolic form expressed in COS cells
Regarding B7, the binding result in data set [5] is on record as “binds”. The dimer stability entry in data set [2] is on record as “formed stable dimers”.

B8: CPG2*(N272): cytosolic CPG2* with N to L substitution at position 272 (protein)
chain: B4 chain with N250L
With B8, the dimer stability result in data set [2] is reported as “formed stable dimers”.

B9: CPG2*(QAQ): cytosolic CPG2*(Q)3 with the glutamine at position 264 substituted with alanine (protein)
chain: B4 chain with N200Q, N242A, N250Q
Regarding B9, the “Catalytic activity (%)” value was “essentially inactive” in data set [1] and “Very low” in data set [1] (listed as COS/CPG2* (QAQ)). Moreover, the dimer stability result in data set [2] is on record as “did not restore dimer stability; also recorded: not improved”.

B10: CPG2*(N264L): cytosolic CPG2* with N to L substitution at position 264 (protein)
chain: B4 chain with N242L
Turning to B10, the dimer stability result in data set [2] was “migrated as a monomer”.

B11: CPG2*(QTQ): cytosolic CPG2*(Q)3 with the glutamine at position 264 substituted with threonine (protein)
chain: B4 chain with N200Q, N242T, N250Q
On to B11, for which, in data set [1], the “catalytic activity compared to CPG2*(Q)3” value was about 2.5 fold, the “increase in Km (decrease in apparent affinity for MTX) compared to CPG2*(Q)3” value was about 12 fold and the “Catalytic activity (%)” value worked out at 78%. Further, in data set [1] (setting [6]), the Km amounted to 125 µM. The dimer stability result in data set [2] was “did not restore dimer stability; also recorded: not improved”.

B12: COS/stCPG2 (Q, NWV, Q): CPG2 with T266 altered to V266 in the context of Q222 and Q272 (protein, UniProt P06621 23-415, looked up, variant N222Q T266V N272Q)
Carboxypeptidase G2: B4 chain with N200Q, T244V, N250Q
modifications: surface tethered
notes: CPG2 with T266 altered to V266 in the context of Q222 and Q272
As for B12, in data set [1], the “Catalytic activity (%)” value came to 55%. Further, the Km in data set [1] (setting [6]) was 90 µM; in data set [1] (unit μm [sic], read-out: Km), 90 µM.

These data come from patent US20040014187A1, “Bacterial carboxypeptidase cpg2 variants and their use in gene directed enzyme prodrug therapy” (priority 2000, published 2004).
